Measurements from US20230064703A1.

molecular target: human GITR expressed on Cho-K1 cells (human) (UniProt Q9Y5U5); assay: FACS binding assay with GITR/Cho-K1, humanized antibody
Sequence (Q9Y5U5 26-241): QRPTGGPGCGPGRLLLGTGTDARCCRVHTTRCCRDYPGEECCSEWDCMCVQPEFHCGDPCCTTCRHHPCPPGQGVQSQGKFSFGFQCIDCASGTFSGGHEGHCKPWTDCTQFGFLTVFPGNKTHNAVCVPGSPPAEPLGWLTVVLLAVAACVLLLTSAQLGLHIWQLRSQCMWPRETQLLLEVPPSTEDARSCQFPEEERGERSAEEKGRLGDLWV

EC50	Binder
0.0704 µg/mL	humanized antibody 45F1F3 VH1.4 + VL1.1 (antibody, V domains shown) VH: DVQLQESGPGLVKPSQTLSLTCTVTGYSITIDYAWNWIRQPPGKGLEWMGYISNSGYTSYNPSLKSRITFSRDTSKNQFFLKLSSVTAADTAVYYCTRSGHYDLFDYWGQGTTVTVSS VL: DVVMTQSPLSLPVTLGQPASISCKSSQSLFDRDGKTYLSWLLQRPGQSPRRLIYLVSNLDSGVPDRFSGSGSGTDFTLKISRVEAEDVGVYYCWQGTHFPYTFGGGTKVEIK
0.106 µg/mL	humanized antibody 45F1F3 VH1.3 + VL1.1 (antibody, V domains shown) VH: QVQLQESGPGLVKPSQTLSLTCTVTGYSITIDYAWNWIRQPPGKGLEWMGYISNSGYTSYNPSLKSRVTISRDTSKNQFFLKLSSVTAADTAVYYCTRSGHYDLFDYWGQGTTVTVSS VL: DVVMTQSPLSLPVTLGQPASISCKSSQSLFDRDGKTYLSWLLQRPGQSPRRLIYLVSNLDSGVPDRFSGSGSGTDFTLKISRVEAEDVGVYYCWQGTHFPYTFGGGTKVEIK
0.0755 µg/mL	humanized antibody 225H7D12 VH1.1 + VL1.2 (antibody, V domains shown) VH: QVQLVQSGAEVKKPGASVKVSCKTTGYRFTGYWIEWVRQAPGQGLEWIGEILPGSGVSNNNEKFRDRATMTADTSISTAYMELSRLRSDDTAVYYCARKASYYTMDYWGQGTLVTVSS VL: DIQMTQSPSSLSASVGDRVTITCTASSSVSSFYFHWYQQKPGKAPKLWIYSISNLASGVPSRFSGSGSGTSYTLTISSLQPEDFATYYCHQYHRSPRTFGGGTKLEIK
0.082 µg/mL	humanized antibody 225H7D12 VH1.3 + VL1.2 (antibody, V domains shown) VH: QVQLVQSGAEVKKPGASVKVSCKASGYRFTGYWIEWVKQAPGQGLEWIGEILPGSGVSNNNEKFRDRATMTADTSINTAYMELSRLRSDDTAVYYCARKASYYTMDYWGQGTLVTVSS VL: DIQMTQSPSSLSASVGDRVTITCTASSSVSSFYFHWYQQKPGKAPKLWIYSISNLASGVPSRFSGSGSGTSYTLTISSLQPEDFATYYCHQYHRSPRTFGGGTKLEIK
0.107 µg/mL	humanized antibody 45F1F3 VH1.1 + VL1 (antibody, V domains shown) VH: QVQLQESGPGLVKPSQTLSLTCTVTGYSITIDYAWNWIRQPPGKGLEWIGYISNSGYTSYNPSLKSRVTFSRDTSKNQFSLKLSSVTAADTAVYYCTRSGHYDLFDYWGQGTTVTVSS VL: DVVMTQSPLSLPVTLGQPASISCKSSQSLFDRDGKTYLSWFQQRPGQSPRRLIYLVSNLDSGVPDRFSGSGSGTDFTLKISRVEAEDVGVYYCWQGTHFPYTFGGGTKVEIK
0.0558 µg/mL	humanized antibody 270C5C10 VH1.4 + VL1 (antibody, V domains shown) VH: QVQLVQSGAEVKKPGASVKVSCKASGYTFTDNYMNWARQSPGQSLEWIGDINPNNGGSRYKEKFKDRATLTVDTSIRTAYMELSRLRSDDTAVYYCANPGSYGFAYWGQGTLVTVSS VL: DVVMTQSPLSLPVTLGQPASISCKSSQSLLDSDGRTYLNWFQQRPGQSPRRLIYLVSQLDSGVPDRFSGSGSGTDFTLKISRVEAEDVGVYYCWQGTHFPWTFGGGTKLEIK
0.0424 µg/mL	humanized antibody 270C5C10 VH1.2 + VL1 (antibody, V domains shown) VH: QVQLVQSGAEVKKPGASVKVSCKASGYTFTDNYMNWVRQAPGQSLEWIGDINPNNGGSRYKEKFKDRATLTVDTSIRTAYMELSRLRSDDTAVYYCANPGSYGFAYWGQGTLVTVSS VL: DVVMTQSPLSLPVTLGQPASISCKSSQSLLDSDGRTYLNWFQQRPGQSPRRLIYLVSQLDSGVPDRFSGSGSGTDFTLKISRVEAEDVGVYYCWQGTHFPWTFGGGTKLEIK

molecular target: human GITR expressed on Cho-K1 cells (human) (UniProt Q9Y5U5); assay: FACS, chimeric antibody on GITR/Cho-K1 cells, geometric mean, 4-parameter fit

EC50	Binder
19400 µg/mL	chimeric antibody 204C10G12 (human IgG1) (antibody, V domains shown) VH: QVQLQQPGAELVKPGASVKMSCKASGYTFTSYWITWVKQRPGQGLEWIGDIYPGSDSTNYNEKFKNKATLTVDTSSSTAYMQLSSLTSEDSAVYYCARGDDFWYFDVWGTGTTVTVSS VL: DVLMTQTPLSLPVSLGDQASISCRSSQSIVHSNGNTYLEWYLQKPGQSPKLLIYKVSNRFSGVPDRFSGSGSGTDFTLKISRVEAEDLGVYYCFQGSHVPLTFGAGTKLELKR
219 µg/mL	chimeric antibody 384H3H11 (human IgG1) (antibody, V domains shown) VH: QVQLKQSGPGLVQPSQSLSITCTVSGFSLTSYGVHWVRQSPGKGLEWLGVIWSGGSTDYNAAFISRLSISKDNSKSQVFFKMNSLQANDTAIYYCARIGLRSFAYWGQGTLVTVSA VL: DIVMTQSPSSLTVTAGEKVTMSCKSSQSLLNSGNQKNYLTWYQQKPGQPPKLLIYWASTRESGVPDRFTGSGSGTDFTLTISSVQAEDLAVYYCQNDYSYPFTFGSGTKLEIKR
0.0499 µg/mL	chimeric antibody 172H7B9(H-La) (human IgG1) (antibody, V domains shown) VH: QVTLKESGPGILQSSQTLSLTCSFSGFSLSPSGMGVTWIRQPSGKGLEWLAHIYWDDVKRYNPSLKSRLTISKDTSRNQVFLKITGVDTADTATYYCARRGSYSDYGGWSFDVWGTGTTVTVSS VL: DIVMTQSPSSLSVSAGEKVTMSCKSSQSLFNSGNQKNYLAWYQQKPGQPPKLLIYGASTRESGVPDRFTGSGSGSDFTLTISSVQAEDLAVYYCQNDHSYPPTFGSGTKLEIKR
331 µg/mL	chimeric antibody 274C7H2 (human IgG1) (antibody, V domains shown) VH: QVQLQQSGAELAKPGASVKLSCKASGYTFTSYWMHWVKQRPGQGLEWIGYINPSSGYTKYNQKFKDKATLTADKSSSTAYMQLSSLTYEDSAVYYCARNPSYDYYAMDYWGQGTSVTVSS VL: QAVVTQESALTTSPGETVTLTCRSSTGAVTTSNYANWVQEKPDHLFTGLIGGTNNRAPGVPARFSGSLIGDKAALTITGAQTEDEAIYFCALWYSNHFIFGSGTKVTVLR
1.59 µg/mL	chimeric antibody 223F12C4 (human IgG1) (antibody, V domains shown) VH: QVQLQQSGAELVKPGASVKVSCKASGYSFTSYWIHWVKQRPGQGLEWIGRIHPSDGDIDHNEKFKGKATLTVDKSSSTAYMQLTSLTSEDSAVYYCLCYIMDYWGQGTSVTVSS VL: DIQMNQSPSSLSASLGDTIAITCHASQNINVWLSWYQQKPGNIPKLLIYKAAKLQTGVPSRFSGSGSGTGFTLTISSLQPEDIATYYCHQGQDYPLTFGAGTKLELKR
0.252 µg/mL	chimeric antibody 225A8D9 (human IgG1) (antibody, V domains shown) VH: QVQLQQSGPELVKPGASVKISCKASGYAFSSSWMNWVKQRPGKGLEWIGRIYPGDGNINYDGKFKGEATLTADKSSSTAYIQLSSLTSEDSAVYFCARSAWLGKTYVMDYWGQGTSVTVSS VL: EIVVTQSPAITAASLGQKVTITCSASSSVTYMNWYQQKSGTSPKPWIYEISKLASGVPAHFSGSGSGTSYSLTISSLEAEDAAIYYCQQWNFPFTFGSGTKVEIRR

molecular target: human GITR expressed on Cho-K1 cells (human) (UniProt Q9Y5U5); assay: FACS, Cho-K1 cells expressing human GITR, mouse mAb, iFluor 647 anti-mouse IgG detection

EC50	Binder
0.000508 µg/mL	anti-GITR mouse monoclonal antibody 45F1F3 (antibody, V domains shown) VH: DVQLQESGPGLVKPSQSLSLTCTVTGYSITIDYAWNWIRQFPGNKLEWMGYISNSGYTSYNPSLKSRISFTRDTSKNQFFLQLNSVTPEDSATYYCTRSGHYDLFDYWGQGTTLTVSS VL: DVVMTQAPLTLSVTIGQPASISCKSSQSLFDRDGKTYLSWLLERPGQSPKRLIYLVSNLDSGVPDRFTGSGSGTDFTLKISRVEAEDLGVYYCWQGTHFPYTFGGGTKVEMK
0.000199 µg/mL	anti-GITR mouse monoclonal antibody 204C10G12 (antibody, V domains shown) VH: QVQLQQPGAELVKPGASVKMSCKASGYTFTSYWITWVKQRPGQGLEWIGDIYPGSDSTNYNEKFKNKATLTVDTSSSTAYMQLSSLTSEDSAVYYCARGDDFWYFDVWGTGTTVTVSS VL: DVLMTQTPLSLPVSLGDQASISCRSSQSIVHSNGNTYLEWYLQKPGQSPKLLIYKVSNRFSGVPDRFSGSGSGTDFTLKISRVEAEDLGVYYCFQGSHVPLTFGAGTKLELK
0.00497 µg/mL	anti-GITR mouse monoclonal antibody 384H3H11 (antibody, V domains shown) VH: QVQLKQSGPGLVQPSQSLSITCTVSGFSLTSYGVHWVRQSPGKGLEWLGVIWSGGSTDYNAAFISRLSISKDNSKSQVFFKMNSLQANDTAIYYCARIGLRSFAYWGQGTLVTVSA VL: DIVMTQSPSSLTVTAGEKVTMSCKSSQSLLNSGNQKNYLTWYQQKPGQPPKLLIYWASTRESGVPDRFTGSGSGTDFTLTISSVQAEDLAVYYCQNDYSYPFTFGSGTKLEIK
0.141 µg/mL	anti-GITR mouse monoclonal antibody 274C7H2 (antibody, V domains shown) VH: QVQLQQSGAELAKPGASVKLSCKASGYTFTSYWMHWVKQRPGQGLEWIGYINPSSGYTKYNQKFKDKATLTADKSSSTAYMQLSSLTYEDSAVYYCARNPSYDYYAMDYWGQGTSVTVSS VL: QAVVTQESALTTSPGETVTLTCRSSTGAVTTSNYANWVQEKPDHLFTGLIGGTNNRAPGVPARFSGSLIGDKAALTITGAQTEDEAIYFCALWYSNHFIFGSGTKVTVL
0.000522 µg/mL	anti-GITR mouse monoclonal antibody 225H7D12 (antibody, V domains shown) VH: QVQLQQSGAEVMKPGASVKLSCKTTGYRFTGYWIEWVKQRPGHGLEWIGEILPGSGVSNNNEKFRDKATFTADTSSNTAYIQLSSLTTDDSAIYYCARKASYYTMDYWGQGTSVTVSS VL: QIVLTQSPAIMSASLGERVTMTCTASSSVSSFYFHWYQQKPGSSPKLWIYSISNLASGVPTRFSGSGSGTSYSLTISSMEAEDAATYYCHQYHRSPRTFGGGTKLEIK
0.000931 µg/mL	anti-GITR mouse monoclonal antibody 223H11H1 (antibody, V domains shown) VH: EVQLQQSGPELVKPGASVKISCKASGYTFTAHYMNWVKKSQGKSLEWIGDINPDNGIIRYNQKFKDKATLTVDKSSSTVFLEFRSLASEDSAVYYCARREALDYWGQGSSVTVSS VL: DVLMTQIPLSLTVSLGDQASISCRSSQSIVYSNGKVYLNWYQQKPGQSPKLLIYKVSDRFSGVPDRFSGSGSGTDFTLKINRVEAEDLGVYYCLQGSHIPWTFGGGTKLEIK
0.000454 µg/mL	anti-GITR mouse monoclonal antibody 223F12C4 (antibody, V domains shown) VH: QVQLQQSGAELVKPGASVKVSCKASGYSFTSYWIHWVKQRPGQGLEWIGRIHPSDGDIDHNEKFKGKATLTVDKSSSTAYMQLTSLTSEDSAVYYCLCYIMDYWGQGTSVTVSS VL: DIQMNQSPSSLSASLGDTIAITCHASQNINVWLSWYQQKPGNIPKLLIYKAAKLQTGVPSRFSGSGSGTGFTLTISSLQPEDIATYYCHQGQDYPLTFGAGTKLELK
0.0026 µg/mL	anti-GITR mouse monoclonal antibody 225A8D9 (antibody, V domains shown) VH: QVQLQQSGPELVKPGASVKISCKASGYAFSSSWMNWVKQRPGKGLEWIGRIYPGDGNINYDGKFKGEATLTADKSSSTAYIQLSSLTSEDSAVYFCARSAWLGKTYVMDYWGQGTSVTVSS VL: EIVVTQSPAITAASLGQKVTITCSASSSVTYMNWYQQKSGTSPKPWIYEISKLASGVPAHFSGSGSGTSYSLTISSLEAEDAAIYYCQQWNFPFTFGSGTKVEIR
